Results on 36 sequences are retold here after the supplement of paper PMC10567573.

± gives the standard deviation.

The nature of the data set: protein stability index of a GFP-peptide fusion (GPS, HEK-293T) (PSI 1-6); higher = more stable. The conditions noted are these: c terminus: a fixed tail appended.
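Further: 24-mer peptide tiles fused after GFP, lentivirally expressed, FACS-sorted into six equal bins by GFP/DsRed ratio, decoded by Illumina sequencing, PSI is the read-weighted mean bin number.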

Turning to LPRKDYESLDYDRCINDPYLEVLE [CLCN6], the protein stability index (treatment: DMSO) came out at 3.4 ± 0.24 and the protein stability index (treatment: MLN4924 1 uM, 8 h) stood at 3.58 ± 0.18.

As for LPSERWNPTQNVRTILLSVISLLN [CDC34], the protein stability index is, setting by setting: (treatment: DMSO) 3.53 ± 0.2; (treatment: MLN4924 1 uM, 8 h) 3.58 ± 0.33.

With LQKLSALLMTADILAETGIRKTVK [ELOA2], the protein stability index stood at 2.48 ± 0.64 (treatment: DMSO) and 2.34 ± 0.45 (treatment: MLN4924 1 uM, 8 h).

Consider LRNTLKSTSEDSLVKQECIKEVVE [FAN1], for which the protein stability index runs as follows: (treatment: DMSO) 4.63 ± 0.3; (treatment: MLN4924 1 uM, 8 h) 5.01 ± 0.23.

As for LRQQQDEAYLASLRADQEKERKKR [FAF2], the protein stability index is 4.36 ± 0.57 (treatment: DMSO) and 4.53 ± 0.4 (treatment: MLN4924 1 uM, 8 h).

In the case of LSASSPRMLHRSTQTTNDGVCQSM [ZMYND11], the protein stability index turned out to be 4 ± 0.24 (treatment: DMSO) and 4.34 ± 0.18 (treatment: MLN4924 1 uM, 8 h).

Sequence LSDEDDGFVDLLDGENLKNEEETP [CDC25A] came in with a protein stability index (treatment: DMSO) of 5.48 ± 0.33 and a protein stability index (treatment: MLN4924 1 uM, 8 h) of 5.4 ± 0.31.

As to LSEVKPPPPPPPAQTFLFQGQPVV [TRADD], the protein stability index by setting is: (treatment: DMSO) 3.89 ± 0.38; (treatment: MLN4924 1 uM, 8 h) 4.07 ± 0.2.

With LSFLDYRDLINCCYVSRRLSQLSS [FBXO3], the protein stability index by setting is: (treatment: DMSO) 2.59 ± 0.18; (treatment: MLN4924 1 uM, 8 h) 2.14 ± 0.48.

As for LSLKRELSWYRGRRPRTAFTQNQI [HESX1], the protein stability index stood at 2.41 ± 0.27 (treatment: DMSO) and 2.66 ± 0.14 (treatment: MLN4924 1 uM, 8 h).

Take LSPAGSSQEAADTPDTRHPCSLGS [YJU2B]: the protein stability index runs as follows: (treatment: DMSO) 5.24 ± 0.21; (treatment: MLN4924 1 uM, 8 h) 5.3 ± 0.23.

For LSPDPEERPGAEGAPLLPPPLPPP [ACBD3], the protein stability index stood at 5.27 ± 0.15 (treatment: DMSO) and 5.32 ± 0.17 (treatment: MLN4924 1 uM, 8 h).

For the sequence LTEHKRIHTGKKPHVCSLCGKAFY [ZNF649], the protein stability index by setting is: (treatment: DMSO) 2.83 ± 0.38; (treatment: MLN4924 1 uM, 8 h) 3.32 ± 0.56.

For the sequence LTKTFQGPAVVCGTPTSHVYMFKN [LYSMD4], the protein stability index reads like this: (treatment: DMSO) 2.45 ± 0.22; (treatment: MLN4924 1 uM, 8 h) 2.63 ± 0.15.

With LTRVLAEMREQYEAMAEKNRRDVE [KRT15], the protein stability index reads like this: (treatment: DMSO) 3.47 ± 0.31; (treatment: MLN4924 1 uM, 8 h) 3.93 ± 0.28.

With LTVRKSQSEPSEQDGVLDLSTKKS [LCOR], the protein stability index by setting is: (treatment: DMSO) 5.15 ± 0.25; (treatment: MLN4924 1 uM, 8 h) 5.22 ± 0.24.

Take LVAFVLLNECVGTAYWALAGSIGG [SLC22A15]: the protein stability index is 3.05 ± 0.34 (treatment: DMSO) and 2.86 ± 0.38 (treatment: MLN4924 1 uM, 8 h).

As to LVDQSKKANSPLKGHERTVQYLQH [VPS39], the protein stability index was 4 ± 0.3 (treatment: DMSO) and 3.85 ± 0.32 (treatment: MLN4924 1 uM, 8 h).

LVKKYGTKQWTLIAKHLKGRLGKQ [MYBL2] displayed a protein stability index (treatment: DMSO) of 2.43 ± 0.89 and a protein stability index (treatment: MLN4924 1 uM, 8 h) of 2.45 ± 0.53.

LWPFAWLQVAGLSEEQLQEPITGW [LPCAT4] displayed a protein stability index (treatment: DMSO) of 2.38 ± 0.18 and a protein stability index (treatment: MLN4924 1 uM, 8 h) of 2.5 ± 0.34.

For the sequence LYKSLKTLSAELVPWLNLKKQDEN [CEP70], the protein stability index runs as follows: (treatment: DMSO) 2.37 ± 0.49; (treatment: MLN4924 1 uM, 8 h) 2.03 ± 0.37.

Turning to LYLEEIADRIIEVDMECQTDAFLD [RSPH3], the protein stability index is, setting by setting: (treatment: DMSO) 2.44 ± 0.74; (treatment: MLN4924 1 uM, 8 h) 2.59 ± 0.28.

For LYLIAKRNRKLKCTFSLTHPANRS [SLC22A15], the protein stability index (treatment: DMSO) was determined as 2.49 ± 0.41 and the protein stability index (treatment: MLN4924 1 uM, 8 h) is 2.41 ± 0.17.

On to LYPSLGAGYRLGPAQPGADSSFPP [TBX6], for which the protein stability index reads like this: (treatment: DMSO) 3.38 ± 0.039; (treatment: MLN4924 1 uM, 8 h) 3.39 ± 0.24.

Consider MADADEGFGLAHTPLEPDAKDLPC [TBX5], for which the protein stability index is 5.24 ± 0.27 (treatment: DMSO) and 5.13 ± 0.22 (treatment: MLN4924 1 uM, 8 h).

Turning to MAGSDTAPFLSQADDPDDGPVPGT [SPNS1], the protein stability index runs as follows: (treatment: DMSO) 5.57 ± 0.17; (treatment: MLN4924 1 uM, 8 h) 5.34 ± 0.23.

As to MAPVMAHVDPEEPWSPCSARFITD [ADAMTS4], the protein stability index turned out to be 3.76 ± 0.4 (treatment: DMSO) and 3.85 ± 0.37 (treatment: MLN4924 1 uM, 8 h).

On to MCVAQVLTAHLLPPRQALGSLCSP [YPEL3], for which the protein stability index runs as follows: (treatment: DMSO) 2.8 ± 0.93; (treatment: MLN4924 1 uM, 8 h) 2.8 ± 0.35.

In the case of MDATNAFKKTAYELLDEKLLARGT [FEM1A], the protein stability index (treatment: DMSO) is 3.8 ± 0.23 and the protein stability index (treatment: MLN4924 1 uM, 8 h) stood at 3.85 ± 0.25.

As to MDEESELIQPQDQSCWAFLPDLCL [FBXO39], the protein stability index reads like this: (treatment: DMSO) 3.45 ± 0.17; (treatment: MLN4924 1 uM, 8 h) 3.34 ± 0.33.

Consider MDERLSLLRSPPPPSARHRAHPPQ [KCNA3], for which the protein stability index came out at 4.55 ± 0.23 (treatment: DMSO) and 4.44 ± 0.19 (treatment: MLN4924 1 uM, 8 h).

As for MDHPSREKDERQRTTKPMAQRSAH [CSNK1G1], the protein stability index by setting is: (treatment: DMSO) 5.34 ± 0.22; (treatment: MLN4924 1 uM, 8 h) 5.09 ± 0.57.

Regarding MDPQNQHGSGSSLVVIQQPSLDSR [SPRY1], the protein stability index was found to be 4.69 ± 0.096 (treatment: DMSO) and 4.65 ± 0.13 (treatment: MLN4924 1 uM, 8 h).

As for MEESKAKFENLCKLMKEILDKKVE [HSP90AB1], the protein stability index by setting is: (treatment: DMSO) 3.34 ± 0.28; (treatment: MLN4924 1 uM, 8 h) 3.29 ± 0.19.

Sequence MEKYEKLAKTGEGSYGVVFKCRNK [CDKL4] registered a protein stability index (treatment: DMSO) of 3.78 ± 0.19 and a protein stability index (treatment: MLN4924 1 uM, 8 h) of 3.67 ± 0.26.

For MERPMSQADLELDYNPPRVQLSDE [CBY2], the protein stability index runs as follows: (treatment: DMSO) 5.36 ± 0.22; (treatment: MLN4924 1 uM, 8 h) 5.22 ± 0.21.
